Positions count from the first letter of the chain named.
T1: His6-myc-tagged Val183Phe eIF2Bα (human, UniProt Q14232 1-305, Val183Phe)
T1 sequence: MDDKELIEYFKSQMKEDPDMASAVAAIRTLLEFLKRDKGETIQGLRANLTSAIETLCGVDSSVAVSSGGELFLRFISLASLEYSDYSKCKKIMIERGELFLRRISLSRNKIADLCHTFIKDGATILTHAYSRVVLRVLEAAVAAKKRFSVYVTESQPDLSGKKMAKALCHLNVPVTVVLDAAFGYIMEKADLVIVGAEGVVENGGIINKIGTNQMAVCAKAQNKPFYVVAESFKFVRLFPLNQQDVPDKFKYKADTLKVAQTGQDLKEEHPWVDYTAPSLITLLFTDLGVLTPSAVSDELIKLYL

T2: His6-myc-tagged Tyr275Cys eIF2Bα (human, UniProt Q14232 1-305, Tyr275Cys)
T2 construct: eIF2Bα encoded by EIF2B1 with the VWM patient mutation Tyr275Cys; residue numbers start with the first methionine of GenBank AAI03764; also called p.Tyr275Cys; source: HEK293, transfected (calcium phosphate), in lysate
T2 sequence: T1 sequence with F183V, Y275C

B1: myc-tagged eIF2Bβ (natural protein, UniProt P49770 1-351, looked up)
chain: MPGSAAKGSELSERIESFVETLKRGGGPRSSEEMARETLGLLRQIITDHRWSNAGELMELIRREGRRMTAAQPSETTVGNMVRRVLKIIREEYGRLHGRSDESDQQESLHKLLTSGGLNEDFSFHYAQLQSNIIEAINELLVELEGTMENIAAQALEHIHSNEVIMTIGFSRTVEAFLKEAARKRKFHVIVAECAPFCQGHEMAVNLSKAGIETTVMTDAAIFAVMSRVNKVIIGTKTILANGALRAVTGTHTLALAAKHHSTPLIVCAPMFKLSPQFPNEEDSFHKFVAPEEVLPFTEGDILEKVSVHCPVFDYVPPELITLFISNIGGNAPSYIYRLMSELYHPDDHVL
notes: eIF2Bβ, beta subunit of eukaryotic initiation factor 2B; one of 'the other subunits of the eIF2B complex'; source: HEK293, transfected (calcium phosphate), in lysate
B2: myc-tagged eIF2Bγ (natural protein, UniProt Q9NR50 1-452, looked up)
chain: MEFQAVVMAVGGGSRMTDLTSSIPKPLLPVGNKPLIWYPLNLLERVGFEEVIVVTTRDVQKALCAEFKMKMKPDIVCIPDDADMGTADSLRYIYPKLKTDVLVLSCDLITDVALHEVVDLFRAYDASLAMLMRKGQDSIEPVPGQKGKKKAVEQRDFIGVDSTGKRLLFMANEADLDEELVIKGSILQKHPRIRFHTGLVDAHLYCLKKYIVDFLMENGSITSIRSELIPYLVRKQFSSASSQQGQEEKEEDLKKKELKSLDIYSFIKEANTLNLAPYDACWNACRGDRWEDLSRSQVRCYVHIMKEGLCSRVSTLGLYMEANRQVPKLLSALCPEEPPVHSSAQIVSKHLVGVDSLIGPETQIGEKSSIKRSVIGSSCLIKDRVTITNCLLMNSVTVEEGSNIQGSVICNNAVIEKGADIKDCLIGSGQRIEAKAKRVNEVIVGNDQLMEI
notes: eIF2Bγ, gamma subunit of eukaryotic initiation factor 2B; one of 'the other subunits of the eIF2B complex'; source: HEK293, transfected (calcium phosphate), in lysate

Key:
[1] = target: T1, His6-myc-tagged Val183Phe eIF2Bα; experiment: cell-based or functional assay
[2] = target: T2, His6-myc-tagged Tyr275Cys eIF2Bα; experiment: pull-down; His6-myc-eIF2Bα (WT or mutant) co-expressed with myc-tagged eIF2B subunits in HEK293; ~200 μg lysate on Ni2+-NTA agarose, 1 h at 4 °C, lysis buffer (20 mM Hepes-KOH pH 7.6, 50 mM KCl, 0.5 % Triton X-100) with 20 mM imidazole; bound material blotted for myc tag, total and phospho-eIF2α; conditions: partners not purified
[3] = target: T1, His6-myc-tagged Val183Phe eIF2Bα; experiment: as above; conditions: partners not purified

Binder | decrease in eIF2B GEF activity of complexes containing Val183Phe eIF2Bα, relative to WT (100 %) [1] [%] | reduction in binding relative to WT [2] [%] | reduction in binding relative to WT [3] [%]
B1 | ~30 | ~50 | ~50
B2 | ~30 | ~50 | ~50

Reference: article PMC4593227, “Biochemical effects of mutations in the gene encoding the alpha subunit of eukaryotic initiation factor (eIF) 2B associated with Vanishing White Matter disease” (BMC Medical Genetics, 2015)
